Consider two molecules from article PMC5062977 (Nucleic Acids Research, 2016).

B1: His-tag AlkB (Escherichia coli alkylation repair protein-B) (enzyme, E. coli)
chain: MLDLFADAEPWQEPLAAGAVILRRFAFNAAEQLIRDINDVASQSPFRQMVTPGGYTMSVAMTNCGHLGWTTHRQGYLYSPIDPQTNKPWPAMPQSFHNLCQRAATAAGYPDFQPDACLINRYAPGAKLSLHQDKDEPDLRAPIVSVSLGLPAIFQFGGLKRNDPLKRLLLEHGDVVVWGGESRLFYHGIQPLKAGFHPLTIDCRYNLTFRQAGKKE
B2: His-tag RecA (natural protein, E. coli)
chain: AIDENKQKALAAALGQIEKQFGKGSIMRLGEDRSMDVETISTGSLSLDIALGAGGLPMGRIVEIYGPESSGKTTLTLQVIAAAQREGKTCAFIDAEHALDPIYARKLGVDIDNLLCSQPDTGEQALEICDALARSGAVDVIVVDSVAALTPKAEIEGEIGDSHMGLAARMMSQAMRKLAGNLKQSNTLLIFINQIRMKIGVMFGNPETTTGGNALKFYASVRLDIRRIGAVKEGENVVGSETRVKVVKNKIAAPFKQAEFQILYGEGINFYGELVDLGVKEKLIEKAGAWYSYKGEKIGQGKANATAWLKDNPETAKEIEKKVRELLLSNPNSTPDFSVDDSEGVAETNEDF

One data set concerns the target T1, GST-RecA (E. coli, UniProt P0A7G6 2-353).
T1 sequence: B2 chain
Nature of the data set: pull-down.

The data set “His-tag RecA” has as its target B2. Briefly: SEC.
The data set “SEC” concerns the molecule itself. Briefly: SEC. (In general: SEC sorts molecules by how far they enter the pores of the column.)

With B1, the binding result with GST-RecA and in the data set with His-tag RecA was “binds” throughout. As to B2, the binding result in the data set “SEC” was “binds”.
